Measured values reported in US7858298.

What was measured:
[1] = target: human CCR5 expressed on the cell surface (human) (UniProt P51681); test: cell-based or functional assay
[2] = target: CD4 on CD4+ target cells (human) (UniProt P01730); test: cell-based or functional assay

recombinant human RANTES, sequence (P13501 24-91): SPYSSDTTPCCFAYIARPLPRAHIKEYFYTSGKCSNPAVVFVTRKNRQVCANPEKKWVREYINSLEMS
recombinant human MIP-1β, sequence (P13236 24-92 limits assumed): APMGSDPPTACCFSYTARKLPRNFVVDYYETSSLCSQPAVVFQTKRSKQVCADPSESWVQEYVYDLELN
recombinant human MIP-1α, sequence (P10147 27-92 limits assumed): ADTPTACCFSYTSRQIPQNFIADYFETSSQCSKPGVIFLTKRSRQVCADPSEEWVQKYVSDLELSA

Work on RANTES + MIP-1α + MIP-1β yielded a % Fusion (RET assay), LW5 CD4+ cells with HeLa-JR-FL cells; R/Mα/Mβ 106/533/133 ng/ml [1] of 39%, a % Fusion (RET assay), PM1 cells with HeLa-JR-FL cells; R/Mα/Mβ 80/400/100 ng/ml [1] of 1% and a % luciferase activity, entry of ADA env-complemented virus into PM1 cells; R/Mα/Mβ 50/50/50 ng/ml [1] of 3%. It also gave a % luciferase activity, entry of BaL env-complemented virus into PM1 cells; R/Mα/Mβ 50/50/50 ng/ml [1] of 2%, a % luciferase activity, entry of JR-FL env-complemented virus into LW4 CD4+ T-cells; R/Mα/Mβ 200/200/200 ng/ml [1] of 14% and a % luciferase activity, entry of JR-FL env-complemented virus into LW5 CD4+ T-cells; R/Mα/Mβ 200/200/200 ng/ml [1] of 15%. For the same substance, the luciferase activity, ADA entry into 3T3-CD4 cells expressing CKR-5, with R/Mα/Mβ 400 ng/ml each (28400 without) (luciferase activity (unit not given)) [1] was 1220, the luciferase activity, ADA entry into COS-CD4 cells expressing CKR-5, with R/Mα/Mβ 400 ng/ml each (153000 without) (luciferase activity (unit not given)) [1] was 3210 and the luciferase activity, ADA entry into HeLa-CD4 cells expressing CKR-5, with R/Mα/Mβ 400 ng/ml each (310000 without) (luciferase activity (unit not given)) [1] was 6340. It also gave a luciferase activity, BaL entry into 3T3-CD4 cells expressing CKR-5, with R/Mα/Mβ 400 ng/ml each (11700 without) (luciferase activity (unit not given)) [1] of 756, a luciferase activity, BaL entry into COS-CD4 cells expressing CKR-5, with R/Mα/Mβ 400 ng/ml each (58800 without) (luciferase activity (unit not given)) [1] of 756 and a luciferase activity, BaL entry into HeLa-CD4 cells expressing CKR-5, with R/Mα/Mβ 400 ng/ml each (104000 without) (luciferase activity (unit not given)) [1] of 750.

monoclonal antibody OKT4A showed a % Fusion (RET assay), LW5 CD4+ cells with HeLa-BRU cells; OKT4A 3 ug/ml [2] of 0% and a % Fusion (RET assay), LW5 CD4+ cells with HeLa-JR-FL cells; OKT4A 3 ug/ml [2] of 0%.

In the case of “recombinant human MIP-1α (from UniProt P10147 27-92) (ligand)”, the % Fusion (RET assay), LW5 CD4+ cells with HeLa-JR-FL cells; MIP-1α 533 ng/ml [1] is reported as 72%, the % Fusion (RET assay), PM1 cells with HeLa-JR-FL cells; MIP-1α 400 ng/ml [1] is reported as 39% and the % luciferase activity, entry of ADA env-complemented virus into PM1 cells; MIP-1α 100 ng/ml [1] is reported as 54%. The % luciferase activity, entry of BaL env-complemented virus into PM1 cells; MIP-1α 100 ng/ml [1] was 54%.

“recombinant human MIP-1β (from UniProt P13236 24-92) (ligand)” was tested, and the % Fusion (RET assay), LW5 CD4+ cells with HeLa-JR-FL cells; MIP-1β 133 ng/ml [1] was 44%, the % Fusion (RET assay), PM1 cells with HeLa-JR-FL cells; MIP-1β 100 ng/ml [1] was 13% and the % luciferase activity, entry of ADA env-complemented virus into PM1 cells; MIP-1β 100 ng/ml [1] was 6%. For the same substance, the % luciferase activity, entry of BaL env-complemented virus into PM1 cells; MIP-1β 100 ng/ml [1] was 1%.

“recombinant human RANTES (from UniProt P13501 24-91) (ligand)” showed a % Fusion (RET assay), LW5 CD4+ cells with HeLa-JR-FL cells; RANTES 106 ng/ml [1] of 65%, a % Fusion (RET assay), PM1 cells with HeLa-JR-FL cells; RANTES 80 ng/ml [1] of 8% and a % luciferase activity, entry of ADA env-complemented virus into PM1 cells; RANTES 100 ng/ml [1] of 1%. For the same substance, the % luciferase activity, entry of BaL env-complemented virus into PM1 cells; RANTES 100 ng/ml [1] was 1%.
